# Assay results: publication PMC4667630, “Localized reconstruction of subunits from electron cryomicroscopy images of macromolecular complexes” (Nature Communications, 2015)
# B1: bacteriophage φ6 protein P1 (natural protein, UniProt P11126 1-769, looked up)
# chain: MFNLKVKDLNGSARGLTQAFAIGELKNQLSVGALQLPLQFTRTFSASMTSELLWEVGKGNIDPVMYARLFFQYAQAGGALSVDELVNQFTEYHQSTACNPEIWRKLTAYITGSSNRAIKADAVGKVPPTAILEQLRTLAPSEHELFHHITTDFVCHVLSPLGFILPDAAYVYRVGRTATYPNFYALVDCVRASDLRRMLTALSSVDSKMLQATFKAKGALAPALISQHLANAATTAFERSRGNFDANAVVSSVLTILGRLWSPSTPKELDPSARLRNTNGIDQLRSNLALFIAYQDMVKQRGRAEVIFSDEELSSTIIPWFIEAMSEVSPFKLRPINETTSYIGQTSAIDHMGQPSHVVVYEDWQFAKEITAFTPVKLANNSNQRFLDVEPGISDRMSATLAPIGNTFAVSAFVKNRTAVYEAVSQRGTVNSNGAEMTLGFPSVVERDYALDRDPMVAIAALRTGIVDESLEARASNDLKRSMFNYYAAVMHYAVAHNPEVVVSEHQGVAAEQGSLYLVWNVRTELRIPVGYNAIEGGSIRTPEPLEAIAYNKPIQPSEVLQAKVLDLANHTTSIHIWPWHEASTEFAYEDAYSVTIRNKRYTAEVKEFELLGLGQRRERVRILKPTVAHAIIQMWYSWFVEDDRTLAAARRTSRDDAEKLAIDGRRMQNAVTLLRKIEMIGTTGIGASAVHLAQSRIVDQMAGRGLIDDSSDLHVGINRHRIRIWAGLAVLQMMGLLSRSEAEALTKVLGDSNALGMVVATTDIDPSL
# notes: P1, major shell protein of the bacteriophage φ6 polymerase complex; atomic structure PDB 4K7H was fitted into the capsid map; also called P1 shell; source: self-assembled in vitro into P124 particles; copies: 120
# Columns and labels:
# [1] = biological target: rotavirus triple-layered particle, non-VP4 protein components (rotavirus (strain not stated)) (UniProt P12476); assay: cryo-EM structure; rotavirus triple-layered particles, previously published data set (ref. 15); icosahedral reconstruction, subtraction of non-VP4 components, localized reconstruction and 3D classification of VP4 sub-particles
# rotavirus triple-layered particle, non-VP4 protein components (rotavirus (strain not stated)), sequence (P12476 whole entry, looked up): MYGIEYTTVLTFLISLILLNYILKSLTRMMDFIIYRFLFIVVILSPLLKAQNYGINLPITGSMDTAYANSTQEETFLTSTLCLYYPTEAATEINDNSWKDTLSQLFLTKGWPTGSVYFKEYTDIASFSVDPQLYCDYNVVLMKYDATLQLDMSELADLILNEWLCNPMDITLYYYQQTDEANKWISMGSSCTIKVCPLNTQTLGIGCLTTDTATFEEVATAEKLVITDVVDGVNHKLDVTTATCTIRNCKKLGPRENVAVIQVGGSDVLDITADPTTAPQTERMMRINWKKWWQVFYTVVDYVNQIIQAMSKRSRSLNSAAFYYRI
# [2] = biological target: the molecule itself; assay: cryo-EM structure; φ6 P124 particles self-assembled in vitro from purified P1, P2 and P4 (molar ratio 120:120:72, 6% PEG 4000, room temperature, 90 min), separated by rate-zonal sucrose gradient centrifugation, 20 mM Tris pH 8.0; icosahedral reconstruction and localized reconstruction with 3D classification of sub-particles at the threefold axes
# [3] = biological target: B1; assay: as above; conditions: both partners purified
molecule,measurement,setting,value
rotavirus viral protein VP4 (from UniProt P12473 1-776) (natural protein),occupancy of VP4,[1],60 to 70%
B1,binding result,[2],binds
"bacteriophage φ6 P2 RNA-dependent RNA polymerase (enzyme, P2, RNA-dependent RNA polymerase of bacteriophage φ6, 75 kDa, monomeric; X-ray structure PDB 1HHS was fitted into the density; also called P2 polymerase; source: self-assembled in vitro into P124 particles) PRRAPAFPLSDIKAQMLFANNIKAQQASKRSFKEGAIETYEGLLSVDPRFLSFKNELSRYLTDHFPANVDEYGRVYGNGVRTNFFGMRHMNGFPMIPATWPLASNLKKRADADLADGPVSERDNLLFRAAVRLMFSDLEPVPLKIRKGSSTCIPYFSNDMGTKIEIAERALEKAEEAGNLMLQGKFDDAYQLHQMGGAYYVVYRAQSTDAITLDPKTGKFVSKDRMVADFEYAVTGGEQGSLFAASKDASRLKEQYGIDVPDGFFCERRRTAMGGPFALNAPIMAVAQPVRNKIYSKYAYTFHHTTRLNKEEKVKEWSLCVATDVSDHDTFWPGWLRDLICDELLNMGYAPWWVKLFETSLKLPVYVGAPAPEQGHTLLGDPSNPDLEVGLSSGQGATDLMGTLLMSITYLVMQLDHTAPHLNSRIKDMPSACRFLDSYWQGHEEIRQISKSDDAILGWTKGRALVGGHRLFEMLKEGKVNPSPYMKISYEHGGAFLGDILLYDSRREPGSAIFVGNINSMLNNQFSPEYGVQSGVRDRSKRKRPFPGLAWASMKDTYGACPIYSDVLEAIERCWWNAFGESYRAYREDMLKRDTLELSRYVASMARQAGLAELTPIDLEVLADPNKLQYKWTEADVSANIHEVLMHGVSVEKTERFLRSVMPR",stoichiometry N,[3],~12 copies of P2 per particle
